The test has as its target T1, EED, comprising residues 76–441 (TEV-cleaved, used for crystallization) (human, UniProt O75530 76-441).
T1 construct: EED (embryonic ectoderm development), human, residues 76-441, cloned into pGEX-KG; The EED in PDB 5H13 (no EZH2 peptide) was cleaved with thrombin instead of TEV; also called embryonic ectoderm development; TEV-cleaved EED protein; source: E. coli BL21-CodonPlus(DE3)-RIL, purified (Glutathione Sepharose 4B, TEV cleavage, Ni2+-NTA flow-through, Superdex 75); not shown: GST, N-terminal, cleaved
Put plainly: crystal structure; TEV-cleaved EED (76-441) mixed with EZH2 peptide at molar ratio 1:2.5; EED-EBD crystals soaked with EED709, EED666 or EED210 (0.1 M Tris pH 8.0, 16% PEG 8000, 20°C) or co-crystallised with EED162 (0.1 M Bis-Tris pH 6.0, 0.2 M MgCl2, 20% PEG 3350). Conditions: both partners purified.

T1 sequence (O75530 76-441): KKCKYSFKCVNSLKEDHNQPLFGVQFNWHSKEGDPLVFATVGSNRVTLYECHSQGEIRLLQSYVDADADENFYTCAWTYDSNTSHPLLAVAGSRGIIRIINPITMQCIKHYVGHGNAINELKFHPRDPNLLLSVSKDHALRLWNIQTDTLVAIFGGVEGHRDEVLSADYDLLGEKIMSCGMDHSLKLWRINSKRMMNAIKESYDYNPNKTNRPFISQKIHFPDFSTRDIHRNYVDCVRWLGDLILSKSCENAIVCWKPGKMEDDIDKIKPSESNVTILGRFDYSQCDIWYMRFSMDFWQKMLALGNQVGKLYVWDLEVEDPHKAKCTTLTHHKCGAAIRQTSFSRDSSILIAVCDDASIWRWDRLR

B1: EZH2 peptide (residues 40–68, EBD) (peptide)
peptide: KSMFSSNRQKILERTEILNQEWKQRRIQPV
notes: EZH2 (Enhancer of zeste homolog 2), human; Printed as NH2-...-CO2H (free ends); also called EBD peptide; EZH2 peptide (40–68); source: synthetic peptide (GL Biochem)
Consider B1, for which the binding result is on record as “binds”.

Source of the values: article PMC5224880, “Discovery and Molecular Basis of a Diverse Set of Polycomb Repressive Complex 2 Inhibitors Recognition by EED” (PLoS ONE, 2017).
